# Experimental data reported in paper PMC12872393 (Life Science Alliance, 2026).
# No end group written: not given here. AF488 = AF Dye 488 fluorescent label
# B1: dye-labeled ATG4B LIR peptide (EDEDFEILSL) (peptide)
# peptide: AF488-EDEDFEILSL
# notes: also called fluorescently labeled ATG4B peptide; labeled ATG4B peptide; source: synthetic peptide (MIT Biopolymers Laboratory, HPLC-purified)
# Experiments:
# His6-GATE16 = biological target: T1, His6-GATE16 (UniProt P60520 1-117); test: fluorescence polarisation; direct anisotropy: 10 nM labeled ATG4B peptide with increasing His6-GATE16; 20 mM Tris, 150 mM NaCl, pH 7.5; RT; apparent KD; conditions: both partners purified
# T1 construct: GATE16, LC3/GABARAP-family protein; also called monomeric His6-GATE16; His6-tagged GATE16; source: E. coli BL21 Tuner DE3, purified (Ni-NTA, SEC)
# [1] = biological target: T2, monomeric GATE16 (mGATE16) (UniProt P60520 1-117); test: fluorescence polarisation; competition anisotropy: 1.5 μM mGATE16 with 10 nM labeled ATG4B peptide; increasing unlabeled peptide; 20 mM Tris, 150 mM NaCl, pH 7.5; RT; conditions: both partners purified
# T2 construct: GATE16, LC3/GABARAP-family protein, from pGex-4T-2_GATE-16 after thrombin cleavage; source: E. coli BL21 Tuner DE3, purified as GST-GATE16, GST removed with thrombin, SEC
# T2 sequence (P60520 whole entry): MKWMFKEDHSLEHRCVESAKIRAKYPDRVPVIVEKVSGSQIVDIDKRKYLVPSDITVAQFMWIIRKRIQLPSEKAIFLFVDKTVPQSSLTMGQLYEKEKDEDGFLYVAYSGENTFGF
# T1 sequence (P60520 whole entry): as above
binder,measurement,setting,value
B1,binding result,His6-GATE16,binds
same,binding result,[1],binds
